Patent publication US20040143098

Tested on: DBF1 (Zea mays)
Experiment: cell_activity
Conditions: maize callus, GUS reporter; nearly 3-fold with ABA

Sequence of DBF1 (Zea mays) (chain, as listed by the source): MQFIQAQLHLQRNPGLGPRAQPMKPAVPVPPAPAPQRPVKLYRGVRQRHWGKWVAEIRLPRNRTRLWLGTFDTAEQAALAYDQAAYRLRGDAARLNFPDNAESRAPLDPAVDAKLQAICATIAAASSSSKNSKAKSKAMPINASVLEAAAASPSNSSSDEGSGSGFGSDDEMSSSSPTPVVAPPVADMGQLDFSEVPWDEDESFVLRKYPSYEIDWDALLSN

How did the activity turn out when rab17 promoter -350/+30 was run?
Its activity is 2 fold.
